Measured values from patent US11529424B2, “Synthetic bioconjugates” (Symic Holdings, Inc., priority 2017, dated 2022).
Where “and” joins values, the source holds several entries; their conditions need not be identical. Identical values can stand only once. Entries after “also recorded” stand apart in the source; their conditions may differ. Like-named read-outs stand apart in the source and are kept apart here. Blank lines part the entries; values can stand above or below the molecule they belong to. Ends that are not written are not given here. * marks the point of attachment. NHNH2 = NN*

Columns and labels:
collagen = assay: Collagen-binding plate assay; settings: for collagen binding EC50: compared to the EC50 for Compound 4
Method: The following method is used to assess the binding affinity of bioconjugates disclosed herein for collagen.
Collagen-binding of bioconjugate variants is compared by a plate-assay, in which collagen is coated on 96-well plates. Collagen is coated on high-bind plates at 50 μg/mL in 0.02 N acetic acid for 1 hour at room temperature. Unbound collagen is rinsed with 1×PBS pH 7.4. Plates are then blocked in 1% milk in 1×PBS solution for 1 hour at room temperature.
Bioconjugate variants containing biotinlyated peptides are dissolved to a final concentration of 1 mg/mL in 1% milk in 1×PBS pH 7.4. From this solution, a 10× serial dilution is performed. Molecules are then incubated on the blocked collagen-coated plates and incubated for 15 minutes at room temperature. Plates are then rinsed 3 times with 1×PBS in 1% BSA and 0.2% Tween20.
Bound molecules are detected by streptavidin-HRP, which was diluted 1:500 in 1× PBS with 1% BSA and 0.2% Tween20 and incubated 200 μL/well for 20 minutes at room temperature. Streptavidin solution is rinsed from the plates 3 times with 1×PBS with 0.2% Tween20. TMB Substrate solution is then added to each well 100 μL/well for 15 minutes at room temperature, and the color evolution was stopped with 100 μL sulfuric acid solution (0.16 M). Absorbance in the well is then measured at 450 nm and binding affinity plotted in a dose-response by absorbance vs. concentration.
This method was used to compare collagen binding affinity of various collagen-binding bioconjugates by comparing EC50 values. More specifically, the EC50 values for each bioconjugate was compared to the EC50 for Compound 4.

[1] = test system: platelet binding to Type I fibrillar collagen; assay: Platelet aggregation: platelet binding to collagen under flow; assay type: cell-based; settings: 2 mg/mL on collagen-coated slides, human whole blood, sheer rate 1000 s−1, 10 minutes; compared to Compound 1
Method: Type I fibrillar collagen was adsorbed to Ibidi μ-slides by overnight incubation at 2-8° C. The Ibidi μ-slides were rinsed with Phosphate Buffer Saline (PBS), and then blocked with 1% BSA in 1×PBS. Compound 10 (shown in FIG. 12B) and Compound 1 at 2 mg/mL (shown in 12A) were applied to Ibidi μ-slides and left to incubate. After 1 hour excess conjugates were rinsed away with 1×PBS. Freshly drawn human whole blood was prestained with Calcein AM (Live Fluorescent cell marker). Blood was pumped across the channels at a sheer rate of 1000 s−1 using a syringe pump for 10 minutes. As blood flows across the Ibidi μ-Slides, Fluorescent microscope was used to take images of aggregated fluorescently labeled platelets.

[2] = test system: mouse model of Non-Alcoholic Steatohepatitis (NASH); assay: Non-Alcoholic Steatohepatitis (NASH) mouse model, liver collagen by Sirius Red; assay type: in vivo, C57BL/6 mice; settings: week 5 to week 9; Compound 10 3×/week intravenous, Telmisartan daily oral; compared to the vehicle treated group
Method: The ability of the compounds to affect liver fibrosis was tested in a mouse model of Non-Alcoholic Steatohepatitis (NASH). C57BL/6 mice received a single subcutaneous injection of 200 μg streptozotocin after birth. Beginning at 4 weeks of age, animals were fed a high fat diet. […] A separate group of animals received daily oral administration of Telmisartan during the same period Animals were sacrificed at 9 weeks of age and the livers were collected for histological and biochemical analysis. Histological analysis of the livers for collagen content was performed using Sirius Red staining.

Collagen Type I = Collagen Type I (Homo sapiens, UniProt P02452+P08123); assay: Collagen Binding Assay 2; settings: with GSGSGSRR spacer versus binding domain without spacer and spacer alone, FIG. 18 and 19
Sequence of Collagen Type I (P02452 162-1218 limits assumed): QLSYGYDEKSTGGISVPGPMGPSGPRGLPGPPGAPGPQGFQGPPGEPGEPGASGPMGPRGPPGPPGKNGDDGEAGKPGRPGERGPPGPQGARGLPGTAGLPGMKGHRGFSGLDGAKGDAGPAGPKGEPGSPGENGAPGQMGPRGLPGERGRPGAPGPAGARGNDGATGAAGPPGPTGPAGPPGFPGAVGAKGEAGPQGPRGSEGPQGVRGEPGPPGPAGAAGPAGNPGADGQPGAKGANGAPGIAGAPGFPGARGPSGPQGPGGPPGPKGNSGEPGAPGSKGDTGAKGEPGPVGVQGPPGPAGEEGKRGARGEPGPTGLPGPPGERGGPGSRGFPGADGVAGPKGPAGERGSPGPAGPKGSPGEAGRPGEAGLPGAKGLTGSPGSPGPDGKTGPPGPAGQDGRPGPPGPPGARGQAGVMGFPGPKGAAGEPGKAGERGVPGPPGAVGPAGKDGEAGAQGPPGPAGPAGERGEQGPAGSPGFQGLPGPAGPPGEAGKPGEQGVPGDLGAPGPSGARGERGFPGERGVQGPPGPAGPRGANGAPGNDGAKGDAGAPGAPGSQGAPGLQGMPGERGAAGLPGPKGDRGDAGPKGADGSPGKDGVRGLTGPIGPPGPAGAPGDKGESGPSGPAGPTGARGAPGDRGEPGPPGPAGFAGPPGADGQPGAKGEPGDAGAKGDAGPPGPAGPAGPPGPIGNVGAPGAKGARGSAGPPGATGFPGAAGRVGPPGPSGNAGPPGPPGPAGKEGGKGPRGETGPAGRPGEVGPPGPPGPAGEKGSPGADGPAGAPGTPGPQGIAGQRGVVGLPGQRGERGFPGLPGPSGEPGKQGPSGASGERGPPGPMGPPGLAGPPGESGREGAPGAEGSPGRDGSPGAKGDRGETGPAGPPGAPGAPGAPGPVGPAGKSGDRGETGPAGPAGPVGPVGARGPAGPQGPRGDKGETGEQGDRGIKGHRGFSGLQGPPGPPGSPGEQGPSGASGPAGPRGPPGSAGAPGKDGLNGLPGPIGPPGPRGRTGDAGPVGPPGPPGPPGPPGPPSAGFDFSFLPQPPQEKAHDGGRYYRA
Sequence of Collagen Type I (P08123 80-1119 limits assumed): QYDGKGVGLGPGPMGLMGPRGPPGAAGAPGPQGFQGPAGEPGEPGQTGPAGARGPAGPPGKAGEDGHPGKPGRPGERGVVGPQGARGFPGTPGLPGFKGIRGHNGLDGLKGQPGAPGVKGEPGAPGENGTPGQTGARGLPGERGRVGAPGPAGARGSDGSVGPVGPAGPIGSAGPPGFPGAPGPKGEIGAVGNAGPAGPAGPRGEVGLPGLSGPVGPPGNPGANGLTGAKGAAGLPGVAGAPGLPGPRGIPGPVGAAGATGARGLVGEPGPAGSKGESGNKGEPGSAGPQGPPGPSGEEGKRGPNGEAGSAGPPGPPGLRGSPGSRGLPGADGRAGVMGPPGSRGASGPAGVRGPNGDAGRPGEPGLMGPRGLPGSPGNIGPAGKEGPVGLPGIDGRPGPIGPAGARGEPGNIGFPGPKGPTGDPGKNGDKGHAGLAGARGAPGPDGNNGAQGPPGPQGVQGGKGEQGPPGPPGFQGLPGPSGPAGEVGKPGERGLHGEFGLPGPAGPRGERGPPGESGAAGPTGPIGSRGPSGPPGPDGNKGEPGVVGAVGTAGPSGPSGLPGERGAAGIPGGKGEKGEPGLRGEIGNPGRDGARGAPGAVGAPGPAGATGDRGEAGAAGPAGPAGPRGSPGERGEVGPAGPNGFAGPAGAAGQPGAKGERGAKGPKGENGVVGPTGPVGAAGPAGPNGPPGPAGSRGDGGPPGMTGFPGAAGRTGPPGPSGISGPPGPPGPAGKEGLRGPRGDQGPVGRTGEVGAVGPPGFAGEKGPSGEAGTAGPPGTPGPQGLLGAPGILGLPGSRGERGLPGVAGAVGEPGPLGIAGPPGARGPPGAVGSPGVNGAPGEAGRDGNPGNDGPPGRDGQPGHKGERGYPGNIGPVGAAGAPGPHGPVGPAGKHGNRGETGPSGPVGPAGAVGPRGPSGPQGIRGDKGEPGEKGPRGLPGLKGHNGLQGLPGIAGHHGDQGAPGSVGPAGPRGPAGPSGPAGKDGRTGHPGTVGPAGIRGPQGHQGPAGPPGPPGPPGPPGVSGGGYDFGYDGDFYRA
Method: GQLYKSILYGSGSGSRR (SEQ ID NO: 6) (Compound 10) was evaluated for binding affinity against the GQLYKSILYGSG (SEQ ID NO: 59) (Peptide X) binding domain without spacer and against the spacer sequence alone, GSGSGSRR (SEQ ID NO: 4) (Spacer A), results shown in FIG. 18. […] WREPSFSALS (SEQ ID NO: 8), also known as vWF-2× due to its binding to the von Willebran binding site on collagen, was evaluated for binding affinity with and without the GSGSGSRR (SEQ ID NO: 4) spacer.
50 μg/ml of Collagen Type I was adsorbed onto high bind plates by incubating overnight. Plates were then washed with PBS and blocked using 1% Non-fat milk in PBS for 1 hour. Molecule dilutions were prepared in 1% BSA in PBS and then incubated for 1 hour at 25° C. Plates were then washed with PBS containing 0.05% Tween 20. A 1:500 dilution of Streptavidin-HRP in 1% BSA PBS was prepared and added to the plates for 20 minutes. Plates were then washed with PBS and TMB solution was added for 10 minutes for color development. The color development was stopped using 0.16 M sulfuric acid and absorbance at […] was measured using a plate reader. Compound 10 was used as a reference standard for all EC50 results.

[3] = target: collagen (coated on 96-well plates, Example 2); assay: collagen-coated 96-well plate, biotin-labelled bioconjugate, streptavidin-HRP/TMB, absorbance at 450 nm (Example 2), the concentration axis is in ug/ml
[4] = target: collagen (coated on 96-well plates, Example 2); assay: collagen-coated 96-well plate, biotin-labelled bioconjugate, streptavidin-HRP/TMB, absorbance at 450 nm (Example 2)
[5] = target: collagen (coated on 96-well plates, Example 2); assay: as above; remark: listed apart in the source
[6] = target: collagen (coated on 96-well plates, Example 2); assay: collagen-coated 96-well plate, biotin-labelled bioconjugate, streptavidin-HRP/TMB, absorbance at 450 nm (Example 2); Kd unit inferred, the concentration axis is in ug/ml

Molecule: Compound 4: heparin bioconjugate with peptide GQLYKSILYGSGRRGSG-NHNH2 (Peptide 4), 1:8 glycan to peptide (also: heparin bioconjugate, 1:8 glycan to peptide, attachment site not given here)
collagen binding affinity (Kd) (collagen; compared to Compound 5 and Compound 3, FIG. 11): significant increase in collagen binding affinity (lower Kd)

Molecule: CCCc1nc2c(C)cc(-c3nc4ccccc4n3C)cc2n1Cc1ccc(-c2ccccc2C(=O)O)cc1 [Telmisartan, reference compound]
levels of collagen in the liver (Sirius Red staining) [2]: decreased levels of collagen in the liver

Molecule: Compound 8: heparin bioconjugate with peptide GQLYKSILYGSRGSG-NHNH2 (Peptide 8), 1:8 glycan to peptide (also: heparin bioconjugate, 1:8 glycan to peptide, attachment site not given here)
collagen binding EC50 (collagen): increases EC50; also recorded: slightly increases EC50

B3: Compound 13 (heparin bioconjugate of …-NHNH2) (peptide)
peptide: GQLYKSILYGSGRGSGSGSG
modifications: not fully specified (C-terminus); printed as GQLYKSILYGSGRGSGSGSG-; also: about 5 peptides per heparin (16 kDa), part of the peptides biotin-labelled
EC50 (read off the curve) [4]: 60 mg/L

B7: Compound 10 (heparin bioconjugate of …-NHNH2) (peptide)
peptide: GQLYKSILYGSGSGSRR
modifications: not fully specified; C-terminal hydrazide (-NHNH-) bonded to a carboxyl of heparin; part of the peptides biotin-labelled
EC50 (read off the curve) [4]: 20 mg/L
EC50 [3]: 15 mg/L

B8: Compound 9 (heparin bioconjugate of …-NHNH2) (peptide)
peptide: GQLYKSILYRRGSGSGS
modifications: not fully specified; C-terminal hydrazide (-NHNH-) bonded to a carboxyl of heparin; part of the peptides biotin-labelled
EC50 (read off the curve) [4]: 50 mg/L

B10: Compound 4 (heparin bioconjugate of …-NHNH2) (peptide)
peptide: GQLYKSILYGSGRRGSG
modifications: not fully specified; C-terminal hydrazide (-NHNH-) bonded to a carboxyl of heparin; part of the peptides biotin-labelled
EC50 (read off the curve) [4]: 50 mg/L
EC50 (read off the curve) [5]: 40 mg/L
EC50 [3]: 40.4 mg/L and 32.1 mg/L
Kd [6]: 42.5 mg/L

B12: Compound 20 (peptide)
peptide conjugated to heparin: GSGGQLYKSILY
modifications: not fully specified (N-terminus); also: part of the peptides biotin-labelled, heparin backbone average 16 kDa
Kd [6]: 35.1 mg/L

Second part, led by results:

collagen binding EC50 (collagen): decreases the EC50
Molecule: Compound 10: heparin bioconjugate with peptide GQLYKSILYGSGSGSRR-NHNH2 (Peptide 10), 1:8 glycan to peptide (also: heparin bioconjugate, 1:8 glycan to peptide, attachment site not given here)
platelet binding to Type I fibrillar collagen [1]: inhibits platelet binding to Type I fibrillar collagen
levels of collagen in the liver (Sirius Red staining) [2]: decreased levels of collagen in the liver
collagen binding affinity (Collagen Type I): greater binding affinity than the binding domain or the spacer in isolation

collagen binding affinity (Collagen Type I): increase in binding affinity
Molecule: WREPSFSALSGSGSGSRR [WREPSFSALSGSGSGSRR (SEQ ID NO: 110)]

EC50 [3]: 44.2 mg/L
B1: Compound 7 (peptide)
peptide conjugated to heparin: GQLYKSILYGRSGRGSG
modifications: not fully specified; C-terminal hydrazide (-NHNH2) coupled to heparin; part of the peptides biotin-labelled

EC50 (read off the curve) [4]: 100 mg/L
B2: Compound 19 (heparin bioconjugate of (…)2-KRRGSG-NHNH2) (peptide)
peptide 1: RVMHGLHLGDDEGSG
peptide 2: KRRGSG
modifications: not fully specified (C-terminus); printed as (RVMHGLHLGDDEGSG)2-KRRGS; also: two copies of chain 1 bonded to the N-terminal branching lysine of chain 2, about 3 branched peptides per heparin (16 kDa)

EC50 (read off the curve) [5]: 50 mg/L
B4: Compound 11 (heparin bioconjugate of …-NHNH2) (peptide)
peptide: GQLYKSILYGSRRGS
modifications: not fully specified; C-terminal hydrazide (-NHNH-) bonded to a carboxyl of heparin; part of the peptides biotin-labelled

Kd [6]: 103 mg/L and 113 mg/L
B5: Compound 5 (heparin bioconjugate of …-NHNH2) (peptide)
peptide: GQLYKSILYGSGSGSGS
modifications: not fully specified; C-terminal hydrazide (-NHNH-) bonded to a carboxyl of heparin; part of the peptides biotin-labelled

EC50 [3]: 63.3 mg/L
B6: Compound 6 (peptide)
peptide conjugated to heparin: GQLYKSILYGSRGRGSG
modifications: not fully specified; C-terminal hydrazide (-NHNH2) coupled to heparin; part of the peptides biotin-labelled

EC50 (read off the curve) [4]: 30 mg/L
B9: Compound 12 (heparin bioconjugate of …-NHNH2) (peptide)
peptide: GQLYKSILYGSGRRRGSG
modifications: not fully specified; C-terminal hydrazide (-NHNH-) bonded to a carboxyl of heparin; part of the peptides biotin-labelled

Kd [6]: 112 mg/L
B11: Compound 3 (heparin bioconjugate of …-NHNH2) (peptide)
peptide: GQLYKSILYGSG
modifications: not fully specified; C-terminal hydrazide (-NHNH-) bonded to a carboxyl of heparin; part of the peptides biotin-labelled

EC50 (read off the curve) [4]: 60 mg/L
Molecule: GQLYKSILYGSGKKGSG (also: conjugated to heparin) [Compound 14 (heparin bioconjugate of …)]

EC50 (read off the curve) [5]: 60 mg/L
EC50 [3]: 47.1 mg/L
B13: Compound 8 (heparin bioconjugate of …-NHNH2) (peptide)
peptide: GQLYKSILYGSRGSG
modifications: not fully specified; C-terminal hydrazide (-NHNH-) bonded to a carboxyl of heparin; part of the peptides biotin-labelled
